Test in all cases: not described
In assay [1] the target is T1, human OX40 (human, UniProt P43489 29-277).
T1 construct: The form used for the Y182A statement ('native') is not described; also called native human OX40; CD134
T1 sequence: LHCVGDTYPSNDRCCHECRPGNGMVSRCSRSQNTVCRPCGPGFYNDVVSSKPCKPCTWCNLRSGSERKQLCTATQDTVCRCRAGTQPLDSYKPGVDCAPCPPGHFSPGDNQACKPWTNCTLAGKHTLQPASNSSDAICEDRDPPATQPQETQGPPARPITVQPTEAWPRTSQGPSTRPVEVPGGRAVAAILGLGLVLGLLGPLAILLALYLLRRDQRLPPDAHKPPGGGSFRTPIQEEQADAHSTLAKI

In assay [2] the target is T2, mouse OX40 (mouse, UniProt P47741 20-272, limits assumed).
T2 construct: also called native mouse OX40
T2 sequence (looked up): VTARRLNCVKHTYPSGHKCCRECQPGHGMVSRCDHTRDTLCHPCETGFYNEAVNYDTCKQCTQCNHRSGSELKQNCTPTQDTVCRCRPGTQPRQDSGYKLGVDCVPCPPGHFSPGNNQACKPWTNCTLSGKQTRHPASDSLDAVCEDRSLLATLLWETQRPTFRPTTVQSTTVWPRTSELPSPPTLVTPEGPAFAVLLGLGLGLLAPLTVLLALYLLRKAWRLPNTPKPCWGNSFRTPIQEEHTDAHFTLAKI

Assay [3] deals with mouse PD-L1 (mouse, UniProt Q9EP73 19-239, limits assumed).
Chain of mouse PD-L1 (Q9EP73 19-239 limits assumed): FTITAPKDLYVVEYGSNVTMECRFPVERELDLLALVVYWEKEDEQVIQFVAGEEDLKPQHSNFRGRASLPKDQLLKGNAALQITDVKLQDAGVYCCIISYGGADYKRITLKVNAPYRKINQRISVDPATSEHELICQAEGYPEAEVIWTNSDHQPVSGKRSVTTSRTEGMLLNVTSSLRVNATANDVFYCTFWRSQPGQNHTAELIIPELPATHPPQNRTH

B1: Y182A mutant mouse OX40L mouse IgG1 fusion protein control (Fc fusion, UniProt P43488 51-198, looked up)
chain: SSSPAKDPPIQRLRGAVTRCEDGQLFISSYKNEYQTMEVQNNSVVIKCDGLYIIYLKGSFFQEVKIDLHFREDHNPISIPMLNDGRRIVFTVVASLAFKDKVYLTVNAPDTLCEHLQINDGELIVVQLTPGACAPEGSYHSTVNQVPL
notes: also called OX40L FP Y182A; mOX40L FP Y182A; not shown: mouse IgG1 Fc domain and any linker or trimerization domain
As to B1, the binding result in assay [1] and in assay [2] was “no binding” in each case.

B2: MEDI4736 (antibody, human IgG1, V domains shown)
VH: EVQLVESGGGLVQPGGSLRLSCAASGFTFSRYWMSWVRQAPGKGLEWVANIKQDGSEKYYVDSVKGRFTISRDNAKNSLYLQMNSLRAEDTAVYYCAREGGWFGELAFDYWGQGTLVTVSS
VL: EIVLTQSPGTLSLSPGERATLSCRASQRVSSSYLAWYQQKPGQAPRLLIYDASSRATGIPDRFSGSGSGTDFTLTISRLEPEDFAVYYCQQYGSLPWTFGQGTKVEIK
notes: also called 2.14H9OPT
For B2, the binding result in assay [3] is recorded as “no binding”.
